This passage reports EGFR-Wt mean, Wt/L858R and EGFR-L858R mean results from patent US9958461B2, “Detection of protein to protein interactions” (THE GOVERNING COUNCIL OF THE UNIVERSITY OF TORONTO, priority 2013, dated 2018).

Assay [1] has as its target T1, EGFR-Wt (Homo sapiens, UniProt P00533).
T1 construct: with the advantage of testing full-length integral membrane proteins; (GGGGS)2 linker-Cub (human ubiquitin aa 35-76)-GAL4(1-147)-mNFkB(364-550) (C); expressed in transfected cells
Put plainly: MaMTH EGFR-interactor screen, lentiviral preys against EGFR-wildtype bait (interaction score). It is filed as cell-based. The following applies: MaMTH interaction score of prey with EGFR-Wt bait, mean. The procedure, abridged: (§1)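 5×GAL4UAS-luciferase HEK293T reporter cells were lentivirally infected with preys (MOI ~0.3-0.4) and puromycin-selected ≥48 h. They were then transfected in triplicate with the EGFR bait, and luciferase was read 24 h later. Score is fold-change over averaged negative-control preys; >1 denotes interaction.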

For assay [2], the system named is EGFR-Wt. Described as above. It is filed as cell-based, human. The following applies: ratio of EGFR-Wt mean to EGFR-L858R mean interaction score. An outline of the steps: as §1
A further assay has as its target T2, EGFR-L858R (Homo sapiens, UniProt P00533, L858R).
T2 construct: with the advantage of testing full-length integral membrane proteins; (GGGGS)2 linker-Cub (human ubiquitin aa 35-76)-GAL4(1-147)-mNFkB(364-550) (C); expressed in transfected cells
In words: MaMTH EGFR-interactor screen, lentiviral preys against EGFR-L858R bait (interaction score). Format: cell-based. The following applies: MaMTH interaction score of prey with EGFR-L858R bait. An outline of the steps: as §1

B1: LAT (protein, UniProt O43561 1-262, looked up)
Linker for activation of …: MEEAILVPCVLGLLLLPILAMLMALCVHCHRLPGSYDSTSSDSLYPRGIQFKRPHTVAPWPPAYPPVTSYPPLSQPDLLPIPRSPQPLGGSHRTPSSRRDSDGANSVASYENEGASGIRGAQAGWGVWGPSWTRLTPVSLPPEPACEDADEDEDDYHNPGYLVVLPDSTPATSTAAPSAPALSTPGIRDSAFSMESIDDYVNVPESGESAEASLDGSREYVNVSQELHPGAAKTEPAALSSQEAEEVEEEGAPDYENLQELN
On to B1, for which the EGFR-Wt mean with EGFR-Wt [1] came out at 29.54. Moreover, in the assay on EGFR-Wt [2], the Wt/L858R is listed as 1.61. Besides, in the assay with EGFR-L858R, the EGFR-L858R mean was 18.39.

B2: CTNNA1 (protein, UniProt P35221 2-906, looked up)
Catenin alpha-1: TAVHAGNINFKWDPKSLEIRTLAVERLLEPLVTQVTTLVNTNSKGPSNKKRGRSKKAHVLAASVEQATENFLEKGDKIAKESQFLKEELVAAVEDVRKQGDLMKAAAGEFADDPCSSVKRGNMVRAARALLSAVTRLLILADMADVYKLLVQLKVVEDGILKLRNAGNEQDLGIQYKALKPEVDKLNIMAAKRQQELKDVGHRDQMAAARGILQKNVPILYTASQACLQHPDVAAYKANRDLIYKQLQQAVTGISNAAQATASDDASQHQGGGGGELAYALNNFDKQIIVDPLSFSEERFRPSLEERLESIISGAALMADSSCTRDDRRERIVAECNAVRQALQDLLSEYMGNAGRKERSDALNSAIDKMTKKTRDLRRQLRKAVMDHVSDSFLETNVPLLVLIEAAKNGNEKEVKEYAQVFREHANKLIEVANLACSISNNEEGVKLVRMSASQLEALCPQVINAALALAAKPQSKLAQENMDLFKEQWEKQVRVLTDAVDDITSIDDFLAVSENHILEDVNKCVIALQEKDVDGLDRTAGAIRGRAARVIHVVTSEMDNYEPGVYTEKVLEATKLLSNTVMPRFTEQVEAAVEALSSDPAQPMDENEFIDASRLVYDGIRDIRKAVLMIRTPEELDDSDFETEDFDVRSRTSVQTEDDQLIAGQSARAIMAQLPQEQKAKIAEQVASFQEEKSKLDAEVSKWDDSGNDIIVLAKQMCMIMMEMTDFTRGKGPLKNTSDVISAAKKIAEAGSRMDKLGRTIADHCPDSACKQDLLAYLQRIALYCHQLNICSKVKAEVQNLGGELVVSGVDSAMSLIQAAKNLMNAVVQTVKASYVASTKYQKSQGMASLNLPAVSWKMKAPEKKPLVKREKQDETQTKIKRASQKKHVNPVQALSEFKAMDSI
Regarding B2, in the assay with EGFR-Wt [1], the EGFR-Wt mean came out at 2.11. The Wt/L858R in the assay with EGFR-Wt [2] is recorded as 1.58. For the same molecule, in the assay with EGFR-L858R, the EGFR-L858R mean is recorded as 1.34.
